The values that follow come from patent US20180155451A1 (published 2018).

Like-named read-outs stand apart in the source and are kept apart here.

The target in experiment [1] is T1, FcgRIa (human, UniProt P12314 16-292).
T1 construct: extracellular domain; Expressed in FreeStyle293 cells and purified; used as analyte in Biacore; also called FcγRIa; FcγRI; not shown: His tag attached to the C terminus
The experiment in a line: SPR (Biacore), antibody captured on chip, FcgR extracellular domain as analyte.

Experiment [2] deals with T2, FcgRIIa R (human, UniProt P12318 34-217).
T2 construct: extracellular domain; also called FcγRIIa R; FcγRIIa type R; not shown: His tag attached to the C terminus
T2 sequence (looked up): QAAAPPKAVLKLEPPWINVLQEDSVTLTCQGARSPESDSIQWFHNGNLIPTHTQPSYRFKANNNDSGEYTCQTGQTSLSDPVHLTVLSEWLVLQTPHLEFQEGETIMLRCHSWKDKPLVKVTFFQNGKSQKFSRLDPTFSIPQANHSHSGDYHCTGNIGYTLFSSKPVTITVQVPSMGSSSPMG
Described as above.

Experiment [3] concerns the target T3, FcgRIIa H (human, UniProt P12318 34-217).
T3 construct: extracellular domain; also called FcγRIIa H; FcγRIIa type H; not shown: His tag attached to the C terminus
T3 sequence (looked up): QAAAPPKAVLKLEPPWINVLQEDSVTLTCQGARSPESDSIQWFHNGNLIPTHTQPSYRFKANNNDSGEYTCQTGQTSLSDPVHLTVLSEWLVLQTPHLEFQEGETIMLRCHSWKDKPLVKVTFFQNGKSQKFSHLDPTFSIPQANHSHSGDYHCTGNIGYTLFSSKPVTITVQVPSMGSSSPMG
The description is as above.

In experiment [4] the target is T4, FcgRIIb (human, UniProt P31994 43-217).
T4 construct: extracellular domain; Expressed in FreeStyle293 cells and purified; used as analyte in Biacore; also called FcγRIIb; CD32B; not shown: His tag attached to the C terminus
T4 sequence (looked up): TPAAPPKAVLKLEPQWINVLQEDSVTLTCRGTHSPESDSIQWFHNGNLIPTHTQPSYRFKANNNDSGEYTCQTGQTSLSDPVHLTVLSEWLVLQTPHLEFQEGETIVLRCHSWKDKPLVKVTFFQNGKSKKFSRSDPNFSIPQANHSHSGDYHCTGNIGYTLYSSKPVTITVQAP
Described as above.

Experiment [5] deals with T5, FcgRIIIa F (human, UniProt P08637 17-208).
T5 construct: extracellular domain; also called FcγRIIIa F; not shown: His tag attached to the C terminus
T5 sequence (P08637 17-208): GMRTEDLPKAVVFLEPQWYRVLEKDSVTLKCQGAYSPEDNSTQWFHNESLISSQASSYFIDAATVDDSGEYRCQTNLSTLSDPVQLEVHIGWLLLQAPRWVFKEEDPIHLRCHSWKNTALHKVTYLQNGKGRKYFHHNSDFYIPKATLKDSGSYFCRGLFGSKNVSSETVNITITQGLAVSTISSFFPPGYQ
The description is as above.

Experiment [6] deals with T6, FcgRIIIa V (human, UniProt P08637 17-208).
T6 construct: extracellular domain; also called FcγRIIIa V; not shown: His tag attached to the C terminus
T6 sequence (P08637 17-208 F176V limits assumed): as the sequence (P08637 17-208) above, with F160V counted along it
The experiment is described as above.

Experiment [7] has as its target T1, FcgRIa. Described as above. On the procedure: (§1) Analysis of interaction between obj ective antibody and the FcγR was carried out using Biacore T100 (GE Healthcare), Biacore T200, Biacore A100, and Biacore 4000. HBS-EP+ (GE Healthcare) was used as the running buffer, and the measurement temperature was set to 25° C. Chips produced by immobilizing the antigen peptide by the amine coupling method to a Series S sensor Chip CM5 (GE Healthcare), chips produced by allowing preliminarily biotinylated antigen peptides to interact with and immobilize onto a Series S Sensor Chip SA (certified) (GE Healthcare), chips produced by immobilizing Protein L (ACTIGEN, BioVision) to Series S Sencor Chip CM5 (GE Healthcare), or chips produced by immobilizing Protein A/G (Thermo Scientific) to Series S Sencor Chip CM5 (GE Healthcare) were used. Antibodies of interest were captured onto these chips, and allowed to interact to each FcγR diluted with running buffer. To regenerate and repeatedly use the chip, the antibodies captured onto the chip were washed off by reacting 10 mM glycine-HCl, pH 1.5.
The source holds these as a separate data set.

The target of experiment [8] is T2, FcgRIIa R. The description is as above. As to the method: as §1
The source holds these as a separate data set.

Experiment [9] has as its target T3, FcgRIIa H. Described as above. On the procedure: as §1
The source holds these as a separate data set.

The target in experiment [10] is T4, FcgRIIb. Described as above. As to the method: as §1
This is another data set of the same source.

In experiment [11] the target is T5, FcgRIIIa F. The description is as above. As to the method:
as §1
This is another data set of the same source.

The target of experiment [12] is T6, FcgRIIIa V. Described as above. On the procedure:
as §1
This is another data set of the same source.

Experiment [13] concerns the target T7, FcγRIIIa extracellular domain with C-terminal His tag (human, UniProt P08637 17-208).
T7 construct: extracellular domain; also called FcgRIIIa; CD16A
The experiment is described as follows: SPR (Biacore), ratio of KD values for FcγRIIIa. An excerpt:
GpH7-A57 (SEQ ID NO: 40) resulting from the introduction of all of S239D, A330L, and I332E into GpH7-A5; GpH7-B78 (SEQ ID NO: 41) resulting from the introduction of all of S239D, A330L, and I332E into GpH7-B3; GpH7-TA7 (SEQ ID NO: 31) resulting from the introduction of all of L234Y, G236W, and S298A into GpH7-A5; and GpH7-TA45 (SEQ ID NO: 32) resulting from the introduction of all of L234Y, G236W, and S298A into GpH7-B3. […] The prepared antibodies were compared for the FcγRIIIa-binding activity using, as an indicator, KD for FcγRIIIa that was determined according to the method described in Reference Example 2.
(§2) Analysis of interaction between objective antibody and the FcγR was carried out using Biacore T100 (GE Healthcare). HBS-EP+ (GE Healthcare) was used as the running buffer, and the measurement temperature was set to 25° C. Chips produced by immobilizing the antigen peptide by the amine coupling method to a Series S Sencor Chip CM5 (GE Healthcare), or alternatively, chips produced by allowing preliminarily biotinylated antigen peptides to interact with and immobilize onto a Series S Sensor Chip SA (certified) (GE Healthcare) were used. Antibodies of interest were captured onto an antigen peptide-immobilized chip, and allowed to interact to each FcγR diluted with running buffer. To regenerate and repeatedly use the chip, the antibodies captured on the chip were washed off by reacting 10 mM glycine-HCl, pH 1.5.

The target in experiment [14] is T7, FcγRIIIa extracellular domain with …. The experiment is described as follows: SPR (Biacore), antibody captured on antigen peptide chip, FcγR as analyte. On the procedure:
Specifically, GpH7-TA7 and GpH7-TA45 (SEQ ID NO: 32) resulting from the introduction of L234Y, G236W, and S298A into GpH7-A5 and GpH7-B3, respectively, were prepared according to the method described in Reference Example 1. […] These antibodies were compared for the FcγRIIIa binding according to the method described in Reference Example 2 (Table 10).
as §2
In general terms: In SPR one partner is held on a chip, and binding of the other changes the refractive index at the surface.

Experiment [15] has the same target. The experiment is described as above. On the procedure:
GpH7-TA8 (SEQ ID NO: 33) and GpH7-B12 (SEQ ID NO: 12) resulting from the introduction of P329R into GpH7-TA7 and GpH7-B3, respectively, were prepared according to the method described in Reference Example 1.
as §2
This is another data set of the same source.

The target is the same in experiment [16]. The experiment in a line: SPR (Biacore), antibody captured, FcγRIIIa as analyte, 1:1 Langmuir kinetic fit. As to the method: The prepared antibodies were compared for the FcγRIIIa-binding activity using, as an indicator, KD for FcγRIIIa that was determined according to the method described in Reference Example 2.
as §2
The FcγR-binding activity of each antibody was assessed primarily using as an indicator the FcγR-binding activity and dissociation constant for FcγR.

T7 sequence (P08637 17-208): as the sequence (P08637 17-208) above
T1 sequence (P12314 16-292): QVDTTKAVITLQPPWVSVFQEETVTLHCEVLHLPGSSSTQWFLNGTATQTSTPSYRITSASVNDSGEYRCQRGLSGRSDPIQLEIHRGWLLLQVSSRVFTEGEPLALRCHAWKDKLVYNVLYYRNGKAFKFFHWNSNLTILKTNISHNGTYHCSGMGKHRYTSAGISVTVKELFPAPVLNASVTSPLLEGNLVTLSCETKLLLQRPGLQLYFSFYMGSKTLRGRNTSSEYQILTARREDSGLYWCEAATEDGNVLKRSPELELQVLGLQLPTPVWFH

B1: H240-G1d/L73-k0 (antibody, human IgG1, kappa)
heavy: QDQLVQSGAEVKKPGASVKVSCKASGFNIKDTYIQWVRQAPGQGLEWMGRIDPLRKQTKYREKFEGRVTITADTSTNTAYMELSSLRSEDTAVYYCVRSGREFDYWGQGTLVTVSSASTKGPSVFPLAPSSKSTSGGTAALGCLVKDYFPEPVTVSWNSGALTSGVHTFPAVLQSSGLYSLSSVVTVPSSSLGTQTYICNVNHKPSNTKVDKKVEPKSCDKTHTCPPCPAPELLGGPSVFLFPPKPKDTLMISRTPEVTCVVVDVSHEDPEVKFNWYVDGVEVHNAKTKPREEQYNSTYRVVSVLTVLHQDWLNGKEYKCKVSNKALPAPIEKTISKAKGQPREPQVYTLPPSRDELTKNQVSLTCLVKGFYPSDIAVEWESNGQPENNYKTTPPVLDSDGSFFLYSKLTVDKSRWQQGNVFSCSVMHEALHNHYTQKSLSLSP
light: DIQMTQSPSSLSASVGDRVTITCRASQDIHKYIAWYQQKPGQAPRLLIQYTSTLQPGVPSRFSGSGSGTDYTFTISSLQPEDIATYYCLQYEQLRTFGGGTKVEIKRTVAAPSVFIFPPSDEQLKSGTASVVCLLNNFYPREAKVQWKVDNALQSGNSQESVTEQDSKDSTYSLSSTLTLSKADYEKHKVYACEVTHQGLSSPVTKSFNRGEC
notes: Anti-EREG native IgG1 (G1d constant region lacks the C-terminal Gly and Lys); also called native IgG1
Usually Kd stands for the equilibrium constant for the complex coming apart. Higher therefore signals weaker binding. With B1, the Kd worked out at 0.23 nM with FcgRIa [1]; 880 nM with FcgRIIa R [2]; 660 nM in the experiment with FcgRIIa H [3]; 6000 nM in the experiment with FcgRIIb [4]; 1400 nM with FcgRIIIa F [5]; 310 nM with FcgRIIIa V [6]. Further, the Kd with FcgRIa [7] is 0.23 nM; with FcgRIIa R [8], 880 nM; with FcgRIIa H [9], 660 nM; with FcgRIIb [10], 6100 nM; in the experiment with FcgRIIIa F [11], 1400 nM; with FcgRIIIa V [12], 310 nM.

B2: H240-A5E/H240-B3E/L73-k0 (antibody, human IgG1, kappa)
heavy 1: not shown
heavy 2: not shown
light: DIQMTQSPSSLSASVGDRVTITCRASQDIHKYIAWYQQKPGQAPRLLIQYTSTLQPGVPSRFSGSGSGTDYTFTISSLQPEDIATYYCLQYEQLRTFGGGTKVEIKRTVAAPSVFIFPPSDEQLKSGTASVVCLLNNFYPREAKVQWKVDNALQSGNSQESVTEQDSKDSTYSLSSTLTLSKADYEKHKVYACEVTHQGLSSPVTKSFNRGEC
notes: Anti-EREG IgG1 control: H240-G1dE with D356K/H435R in one H chain and K439E in the other, no FcgR-related alterations
As to B2, the Kd with FcgRIa [7] was found to be 0.61 nM; with FcgRIIa R [8], 940 nM; with FcgRIIa H [9], 910 nM; with FcgRIIb [10] it was 4300 nM; with FcgRIIIa F [11], 1600 nM; with FcgRIIIa V [12], 330 nM.

B3: GpH7-TA7/GpH7-B3/GpL16-k0 (antibody, human IgG1, kappa)
heavy 1: QVQLVQSGAEVKKPGASVTVSCKASGYTFTDYEMHWIRQPPGEGLEWIGAIDPKTGDTAYSESFQDRVTLTADKSTSTAYMELSSLTSEDTAVYYCTRFYSYTYWGQGTLVTVSSASTKGPSVFPLAPSSKSTSGGTAALGCLVKDYFPEPVTVSWNSGALTSGVHTFPAVLQSSGLYSLSSVVTVPSSSLGTQTYICNVNHKPSNTKVDKKVEPKSCDKTHTCPPCPAPEYLWGPSVFLFPPKPKDTLMISRTPEVTCVVVDVSHEDPEVKFNWYVDGVEVHNAKTKPREEQYNATYRVVSVLTVLHQDWLNGKEYKCKVSNKALPAPIEKTISKAKGQPREPQVYTLPPSRKELTKNQVSLTCLVKGFYPSDIAVEWESNGQPENNYKTTPPVLDSDGSFFLYSKLTVDKSRWQQGNVFSCSVMHEALHNRYTQKSLSLSP
heavy 2: not shown
light: DIVMTQSPLSLPVTPGEPASISCQASESLVHSNRNTYLHWYLQKPGQSPQLLIYKVSNRFSGVPDRFSGSGSGTDFTLKISRVEAEDVGVYYCSQNTHVPPTFGQGTKVEIERTVAAPSVFIFPPSDEQLKSGTASVVCLLNNFYPREAKVQWKVDNALQSGNSQESVTEQDSKDSTYSLSSTLTLSKADYEKHKVYACEVTHQGLSSPVTKSFNRGEC
notes: Heterodimerized anti-glypican-3 IgG1 variant
Turning to B3, in [13], the “KD ratio 1 (KD of GpH7-G1d/GpL16-k0 divided by KD of the antibody)” value was 3.8 fold and the “KD ratio 2 (KD of GpH7-A5/GpH7-B3/GpL16-k0 divided by KD of the antibody)” value worked out at 5.1 fold. Moreover, the “FcγR BINDING ACTIVITY (relative FcγRIIIa binding)” value in experiment [14] is 210 relative, GpH7-A5/GpH7-B3/GpL16-k0 = 100. Further, the “FcγRIIIa BINDING ACTIVITY (relative)” value in experiment [15] is 210 relative, GpH7-A5/GpH7-B3/GpL16-k0 = 100. In experiment [16], this molecule gave a Kd of 320 nM.
